Assay results taken from patent US20170081400A1 (CEPHALON, published 2017).
Numbering of substitutions follows the chain as printed.

T1: human TL1A extracellular domain with N-terminal HIS and FLAG tag (human, UniProt O95150 72-251)
T1 construct: the whole entry is named; also called TNFSF15
T1 sequence: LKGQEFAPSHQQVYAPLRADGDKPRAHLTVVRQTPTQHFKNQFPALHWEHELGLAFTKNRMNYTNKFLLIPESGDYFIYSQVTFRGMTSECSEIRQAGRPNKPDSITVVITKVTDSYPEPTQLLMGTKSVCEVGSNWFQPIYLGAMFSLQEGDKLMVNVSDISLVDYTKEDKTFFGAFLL

T2: human TL1A extracellular domain with N-terminal HIS and FLAG tag (human) (UniProt O95150)
T2 sequence: T1 sequence

T3: human TL1A extracellular domain with N-terminal HIS and FLAG tag (human, UniProt O95150 72-251)
T3 construct: whole entry named. ~70 kDa fraction purified by gel filtration
T3 sequence: T1 sequence

B1: 320-613 (antibody, human IgG1, name in Kabat numbering, V domains shown)
VH: QVQLVQSGAEVKKPGASVKVSCKASGYTFTSYDINWVRQAPGQGLEWMGWLNPNSGYTGYAQKFQGRVTMTADRSTSTAYMELSSLRSEDTAVYYCAREVPETAAFEYWGQGTLVTVSS
VL: QSVLTQPPSVSGAPGQRVTISCTSSSSDIGAGLGVHWYQQLPGTAPKLLIEGYYNRPSGVPDRFSGSKSGTSASLTITGLLPEDEGDYYCQSWDYTLSALFGGGTKLTVLG
notes: full-length human IgG1, lambda
B2: 320-611 (antibody, human IgG1, name in Kabat numbering, V domains shown)
VH: B1 VH
VL: B1 VL with Y95K
notes: as for B1
B3: 320-588 (antibody, human IgG1, name in Kabat numbering, V domains shown)
VH: B1 VH
VL: B1 VL with G32A, W93Y, Y95G
notes: as for B1
B4: 320-585 (antibody, human IgG1, name in Kabat numbering, V domains shown)
VH: B1 VH with Y57N
VL: B1 VL with L33Q, Y95G
notes: as for B1
B5: 320-586 (antibody, human IgG1, name in Kabat numbering, V domains shown)
VH: B1 VH with Y57N
VL: B1 VL with H36L, Y95G
notes: as for B1
B6: 320-584 (antibody, human IgG1, name in Kabat numbering, V domains shown)
VH: B1 VH with Y57N
VL: B1 VL with L33S, Y95G
notes: as for B1
B7: 320-583 (antibody, human IgG1, name in Kabat numbering, V domains shown)
VH: B1 VH with Y57N
VL: B1 VL with G32A, Y95G
notes: as for B1
B8: 320-211 (antibody, human IgG1, name in Kabat numbering, V domains shown)
VH: B1 VH with Y57N
VL: B1 VL with S25D, W93Y, Y95G
notes: human IgG1, lambda
B9: 320-201 (antibody, human IgG1, name in Kabat numbering, V domains shown)
VH: B1 VH with Y57N
VL: B1 VL with S24A, W93Y, Y95G
notes: human IgG1, lambda
B10: 320-205 (antibody, human IgG1, name in Kabat numbering, V domains shown)
VH: B1 VH with Y57N
VL: B1 VL with S24K, W93Y, Y95G
notes: human IgG1, lambda
B11: 320-213 (antibody, human IgG1, name in Kabat numbering, V domains shown)
VH: B1 VH with Y57N
VL: B1 VL with S25K, W93Y, Y95G
notes: human IgG1, lambda
B12: 320-193 (antibody, human IgG1, name in Kabat numbering, V domains shown)
VH: B1 VH with Y57N
VL: B1 VL with T23S, W93Y, Y95G
notes: human IgG1, lambda
B13: 320-236 (antibody, human IgG1, name in Kabat numbering, V domains shown)
VH: B1 VH with Y57N
VL: B1 VL with D28H, W93Y, Y95G
notes: human IgG1, lambda
B14: 320-237 (antibody, human IgG1, name in Kabat numbering, V domains shown)
VH: B1 VH with Y57N
VL: B1 VL with D28K, W93Y, Y95G
notes: human IgG1, lambda
B15: 320-197 (antibody, human IgG1, name in Kabat numbering, V domains shown)
VH: B1 VH with Y57N
VL: B1 VL with T23K, W93Y, Y95G
notes: human IgG1, lambda
B16: 320-194 (antibody, human IgG1, name in Kabat numbering, V domains shown)
VH: B1 VH with Y57N
VL: B1 VL with T23Q, W93Y, Y95G
notes: human IgG1, lambda
B17: 320-221 (antibody, human IgG1, name in Kabat numbering, V domains shown)
VH: B1 VH with Y57N
VL: B1 VL with S26K, W93Y, Y95G
notes: human IgG1, lambda
B18: 320-233 (antibody, human IgG1, name in Kabat numbering, V domains shown)
VH: B1 VH with Y57N
VL: B1 VL with D28A, W93Y, Y95G
notes: human IgG1, lambda
B19: 320-218 (antibody, human IgG1, name in Kabat numbering, V domains shown)
VH: B1 VH with Y57N
VL: B1 VL with S26Q, W93Y, Y95G
notes: human IgG1, lambda
B20: 320-203 (antibody, human IgG1, name in Kabat numbering, V domains shown)
VH: B1 VH with Y57N
VL: B1 VL with S24D, W93Y, Y95G
notes: human IgG1, lambda
B21: 320-199 (antibody, human IgG1, name in Kabat numbering, V domains shown)
VH: B1 VH with Y57N
VL: B1 VL with T23W, W93Y, Y95G
notes: human IgG1, lambda

These binders were tested against T1, human TL1A extracellular domain with … (assay: SPR Run 9, antibody on Protein A, TL1A 5 ug/mL, timepoint 44).
Description: (§1) 1.5. Antibody expression and antigen binding as determined by SPR. Using a CM5 sensor chip (GE Healthcare) Protein A (Pierce) was coupled to the chip surface using an amine coupling kit (GE Healthcare). Protein A was coupled on flow cell 1 and 2 (or alternatively 3 and 4) using a BIACORE® T200. […] The amount of supernatant or purified protein (as well as the concentration) injected during the capture stage varied between runs and is specified in the header of the Tables 3-11. At the end of injection of the supernatant or purified antibody the change in response units was measured. This value was reported as Capture Level in Tables 3-11. […] The response units were measured prior to the end of the dissociation phase. […] The sensorgrams were double referenced (flow cell 2 is subtracted from flow cell 1 and a buffer blank). As there were a large number of antibody variants to screen, these were screened across different runs (Tables 3-11). […] A summary of the conditions used in each run is below:
(§2) 2.1. […] In some experiment the antibodies were purified using Protein A chromatography (See 1.4) and purified antibodies were used in BIACORE® (GE Healthcare) experiments.

TL1A Binding Level (Early) [RU]	Binder
135	B1
125	B2

Each binder was assayed against T1, human TL1A extracellular domain with … (assay: SPR Run 8, antibody on Protein A, TL1A 5 ug/mL, timepoint 44).
Description: as §1, §2

TL1A Binding Level (Early) [RU]	Binder
128	B3
116	B4
108	B5
103	B6
108	B7

What follows are binders tested against T1, human TL1A extracellular domain with … (assay: SPR Run 9, antibody on Protein A, TL1A 5 ug/mL, timepoint 590).
Description: as §1, §2

TL1A Binding Level (Late) [RU]	Binder
131	B1
127	B2

These binders were tested against T2, human TL1A extracellular domain with N-terminal HIS and FLAG tag (human) (assay: cell-based or functional assay).

Antibody IC50, TL1A induced caspase potency assay in TF-1 cells [µg/mL]	Fold improvement over 320-179, TL1A induced caspase potency assay in TF-1 cells [fold]	Binder
0.01	3	B8
0.005	2	B9
0.02	2	B10
0.07	0	B11

What follows are binders tested against T3, human TL1A extracellular domain with … (assay: SPR run 2; supernatant on Protein A; TL1A 10 ug/mL; timepoint 44).
Description: as §1, §2

TL1A Binding Level (Early) [RU]	Binder
249	B12
254	B13
206	B8
274	B9
290	B10
218	B11
240	B14
255	B15
247	B16
225	B17
255	B18
239	B19
61	B20
251	B21

What follows are binders tested against T1, human TL1A extracellular domain with … (assay: SPR Run 8, antibody on Protein A, TL1A 5 ug/mL, timepoint 590).
Description: as §1, §2

TL1A Binding Level (Late) [RU]	Binder
123	B3
109	B4
103	B5
98	B6
103	B7

Each binder was assayed against T3, human TL1A extracellular domain with … (assay: SPR run 2; purified antibody on Protein A; TL1A 10 ug/mL; timepoint 44).
Description: as §1, §2

TL1A Binding Level (Early) [RU]	Binder
103	B12
5	B13
80	B8
73	B9
70	B10
79	B11
10	B14
105	B15
76	B16
99	B17
48	B18
92	B19
65	B20
97	B21

What follows are binders tested against T3, human TL1A extracellular domain with … (assay: SPR run 2; supernatant on Protein A; TL1A 10 ug/mL; timepoint 220).
Description: as §1, §2

TL1A Binding Level (Late) [RU]	Binder
227	B12
232	B13
164	B8
252	B9
271	B10
194	B11
221	B14
232	B15
226	B16
207	B17
235	B18
218	B19
24	B20
233	B21

Each binder was assayed against T1, human TL1A extracellular domain with … (assay: cell-based or functional assay).

Antibody IC50, TL1A induced caspase potency assay in TF-1 cells [ng/mL]	Fold improvement over 320-179, TL1A induced caspase potency assay in TF-1 cells [fold]	Binder
10	4	B1
4	5	B3
5	8	B2
3	13	B4
2	25	B5
8	10	B6
3	27	B7

These binders were tested against T3, human TL1A extracellular domain with … (assay: SPR run 2; purified antibody on Protein A; TL1A 10 ug/mL; timepoint 590).
Description: as §1, §2

TL1A Binding Level (Late) [RU]	Binder
91	B12
6	B13
64	B8
57	B9
51	B10
65	B11
8	B14
94	B15
64	B16
89	B17
16	B18
80	B19
35	B20
85	B21
